Assay [1] addresses A/Beijing/95(H1N1) (Influenza A virus A/Beijing/95 (H1N1)). As to the kind of experiment: lateral-flow sandwich, B line: M2110171 striped + 2/3-Eu.
Assay [2] addresses B/Shanghai/2002 (Influenza B virus B/Shanghai/2002). Described as above.
The target of assay [3] is A/Taiwan/1/86 (H1N1) (Influenza A virus A/Taiwan/1/86 (H1N1)). Described as above.
In assay [4] the target is DK/VNM/568/2005 (H5N1) (Influenza A virus DK/VNM/568/2005 (H5N1)). The assay is described as above.
For assay [5], the target named is Bar-headed GS/QH/15/2005 (H5N1) (Influenza A virus Bar-headed GS/QH/15/2005 (H5N1)). Described as above.
Assay [6] addresses A/Beijing/95(H1N1) (Influenza A virus A/Beijing/95 (H1N1)). As to the kind of experiment: lateral-flow sandwich, A line: 7304 striped + M4090913-Eu.
Assay [7] concerns the target B/Shanghai/2002 (Influenza B virus B/Shanghai/2002). The description is as above.
Assay [8] has as its target A/Taiwan/1/86 (H1N1) (Influenza A virus A/Taiwan/1/86 (H1N1)). Described as above.
Assay [9] deals with DK/VNM/568/2005 (H5N1) (Influenza A virus DK/VNM/568/2005 (H5N1)). The description is as above.
In assay [10] the target is Bar-headed GS/QH/15/2005 (H5N1) (Influenza A virus Bar-headed GS/QH/15/2005 (H5N1)). The description is as above.
Another assay concerns the target H5N1 virus strain A3. As to the kind of experiment: cell-based or functional assay.
The next assay has as its target H5N1 virus strain H2. As to the kind of experiment: cell-based or functional assay.
The target of another assay is H5N1 virus strain A8. As to the kind of experiment: cell-based or functional assay.
The next assay concerns the target H5N1 virus strain B4. As to the kind of experiment: cell-based or functional assay.
A further assay concerns the target H5N1 virus strain F2. As to the kind of experiment: cell-based or functional assay.
The next assay has as its target H5N1 virus strain G1. As to the kind of experiment: cell-based or functional assay.
A further assay has as its target H5N1 virus strain E2. As to the kind of experiment: cell-based or functional assay.
The next assay has as its target H5N1 virus strain A6. As to the kind of experiment: cell-based or functional assay.
The next assay addresses H5N1 virus strain A5. As to the kind of experiment: cell-based or functional assay.
Another assay concerns the target H5N1 virus strain D1. As to the kind of experiment: cell-based or functional assay.
In the next assay the target is H5N1 virus strain A7. As to the kind of experiment: cell-based or functional assay.
Another assay deals with H5N1 virus strain C2. As to the kind of experiment: cell-based or functional assay.
The target of the next assay is H5N1 virus strain E1. As to the kind of experiment: cell-based or functional assay.
Another assay has as its target H5N1 virus strain B5. As to the kind of experiment: cell-based or functional assay.
In a further assay the target is H5N1 virus strain B2. As to the kind of experiment: cell-based or functional assay.
A further assay has as its target H5N1 virus strain A2. As to the kind of experiment: cell-based or functional assay.
The next assay has as its target H5N1 virus strain C3. As to the kind of experiment: cell-based or functional assay.
For a further assay, the target named is H5N1 virus strain A1. As to the kind of experiment: cell-based or functional assay.
The next assay addresses H5N1 virus strain D2. As to the kind of experiment: cell-based or functional assay.
In the next assay the target is H5N1 virus strain B8. As to the kind of experiment: cell-based or functional assay.
A further assay deals with H5N1 virus strain F3. As to the kind of experiment: cell-based or functional assay.
Another assay addresses H5N1 virus strain B3. As to the kind of experiment: cell-based or functional assay.
The next assay deals with H5N1 virus strain B7. As to the kind of experiment: cell-based or functional assay.
For the next assay, the target named is H5N1 virus strain H1. As to the kind of experiment: cell-based or functional assay.
For a further assay, the target named is H5N1 virus strain B1. As to the kind of experiment: cell-based or functional assay.
The next assay deals with H5N1 virus strain B6. As to the kind of experiment: cell-based or functional assay.
Assay [11] concerns the target H5N1 virus CK/HK/213/03 (Influenza A virus CK/HK/213/03). As to the kind of experiment: cell-based or functional assay.
Assay [12] deals with H5N1 virus DK/IDN/MS/04 (Influenza A virus DK/IDN/MS/04). As to the kind of experiment: cell-based or functional assay.
Assay [13] deals with H5N1 virus Oriental Magpie Robin/HK/366/2006 (Influenza A virus Oriental Magpie Robin/HK/366/2006). As to the kind of experiment: cell-based or functional assay.
Assay [14] deals with Bar-headed GS/QH/15/2005 (H5N1) (Influenza A virus Bar-headed GS/QH/15/2005 (H5N1)). As to the kind of experiment: cell-based or functional assay.
Assay [15] has as its target H5N1 virus CK/IDN/2A/04 (Influenza A virus CK/IDN/2A/04). As to the kind of experiment: cell-based or functional assay.
Assay [16] concerns the target H5N1 virus CP Heron/HK/18/05 (Influenza A virus CP Heron/HK/18/05). As to the kind of experiment: cell-based or functional assay.

For the molecule “Anti-Flu B nucleoprotein M2110171 (Fitzgerald) (antibody)”, the Signal/noise of test line in assay [1] is 0.5; in assay [2], 376; in assay [3], 0.4; in assay [4], 1; in assay [5], 0.6.

Regarding anti-Flu A Medix 7304 antibody, the Signal/noise of test line in assay [6] turned out to be 896; in assay [7], 3.9; in assay [8], 493; in [9], 607; in assay [10], 246.

B1: 4D1 single chain antibody (scFv)
scFv: QVQLQQPGAELVKPGASVNLSCKASGYTFTSYWMHWVKQRPGQGLEWIGEIDPSDSFTTYNQNFKDRATLTVDKSSSTAYMQLRSLTSEDSAVYYCARGGPGDFRYAMDYWGQGTSVTVSSGGGGSDILMTQSPSSMSVSLGDTVSITCHASQGISSNIGWLQQKPGKSFKGLIYHGTNLEDGVPSRFSGSGSGADYSLTISSLESEDFADYYCVQYVQFPYTFGGGTKLEIKRA
Take B1: the HI titer n (titer = 2^n) (n-th power of 2) was greater than 8 in the assay with H5N1 virus strain A3; 4 in the assay with H5N1 virus strain H2; greater than 8 with H5N1 virus strain A8; greater than 8 in the assay with H5N1 virus strain B4; 5 in the assay with H5N1 virus strain F2; 3.5 with H5N1 virus strain G1. For the same molecule, the HI titer n (titer = 2^n) (n-th power of 2) was 1 with H5N1 virus strain E2; 7 with H5N1 virus strain A6; greater than 8 in the assay with H5N1 virus strain A5; greater than 8 in the assay with H5N1 virus strain D1; 6 in the assay with H5N1 virus strain A7; greater than 8 in the assay with H5N1 virus strain C2. Moreover, the HI titer n (titer = 2^n) (n-th power of 2) with H5N1 virus strain E1 is 1; with H5N1 virus strain B5, 0; with H5N1 virus strain B2 it was 0; with H5N1 virus strain A2, greater than 8; with H5N1 virus strain C3, greater than 8; in the assay with H5N1 virus strain A1, greater than 8. For the same molecule, the HI titer n (titer = 2^n) (n-th power of 2) with H5N1 virus strain D2 is 7.5; with H5N1 virus strain B8 it was greater than 8; with H5N1 virus strain F3 it was 3; with H5N1 virus strain B3, greater than 8; with H5N1 virus strain B7 it was greater than 8; in the assay with H5N1 virus strain H1, 6. Also, the HI titer n (titer = 2^n) (n-th power of 2) with H5N1 virus strain B1 and with H5N1 virus strain B6 was greater than 8 each time.

B2: 8H5 single chain antibody (scFv, V domains shown)
VH: QVQLQQSGAELMKPGASVKISCKATGYTFSNYWIEWIKQRPGHGLEWIGEILPGSDRTNYNGKFKGKATFTADTSSNTAHMQLSSLTSEDSAVYYCANRYDGYYFGLDYWGQGTSVAVSS
VL: EIVLTQSPAIMSASLGEKVTMSCRASSSVNFVYWYQQRSDASPKLLIYYSSNLAPGVPPRFSGSGSGNSYSLTISGLEGEDAATYYCQHFTSSPYTFGGGTNLEIKR
For the molecule B2, the HI titer n (titer = 2^n) (n-th power of 2) turned out to be 3.5 in the assay with H5N1 virus strain A3; 0 in the assay with H5N1 virus strain H2; 2.5 with H5N1 virus strain A8; 5 with H5N1 virus strain B4; 0 with H5N1 virus strain F2; 0 in the assay with H5N1 virus strain G1. For the same molecule, the HI titer n (titer = 2^n) (n-th power of 2) with H5N1 virus strain E2 turned out to be 0; with H5N1 virus strain A6 it was 3; in the assay with H5N1 virus strain A5, 4; with H5N1 virus strain D1, 2.5; with H5N1 virus strain A7 it was 3; with H5N1 virus strain C2, 1. Besides, the HI titer n (titer = 2^n) (n-th power of 2) with H5N1 virus strain E1 worked out at 0; with H5N1 virus strain B5, 0; in the assay with H5N1 virus strain B2, 0; with H5N1 virus strain A2 it was 4.5; with H5N1 virus strain C3 it was 0; with H5N1 virus strain A1, 3.5. The HI titer n (titer = 2^n) (n-th power of 2) stood at 2 with H5N1 virus strain D2; 3 in the assay with H5N1 virus strain B8; 0 with H5N1 virus strain F3; 5 with H5N1 virus strain B3; 4 in the assay with H5N1 virus strain B7; 0 with H5N1 virus strain H1. The HI titer n (titer = 2^n) (n-th power of 2) was 4 with H5N1 virus strain B1 and 3.5 in the assay with H5N1 virus strain B6.

B3: 10F7 single chain antibody (scFv)
scFv: QVQLQQPGAELVKPGASVKLSCKASGYTFTSYWMHWVKQRPGQGLEWIGEIDPSDSYTNYNQKFKGKATLTVDKSSSTAYMQLSSLTSEDSAVYYCARGGTGDFHYAMDYWGQGTSVTVSSGGGGSDILMTQSPSSMSVSLGDTVSITCHASQGISSNIGWLQQKPGKSFKGLIYHGTNLEDGVPSRFSGSGSGADYSLTISSLESEDFADYYCVQYVQFPYTFGGGTKLEIKR
With B3, the HI titer n (titer = 2^n) (n-th power of 2) was greater than 8 with H5N1 virus strain A3; 0 in the assay with H5N1 virus strain H2; 6 with H5N1 virus strain A8; greater than 8 in the assay with H5N1 virus strain B4; 0 with H5N1 virus strain F2; 0 with H5N1 virus strain G1. For the same molecule, the HI titer n (titer = 2^n) (n-th power of 2) with H5N1 virus strain E2 is 0; with H5N1 virus strain A6, 7.5; with H5N1 virus strain A5, greater than 8; with H5N1 virus strain D1, 2.5; in the assay with H5N1 virus strain A7, 6.5; in the assay with H5N1 virus strain C2, 2. In addition, the HI titer n (titer = 2^n) (n-th power of 2) in the assay with H5N1 virus strain E1 is 0; in the assay with H5N1 virus strain B5, 0; with H5N1 virus strain B2, 0; in the assay with H5N1 virus strain A2 it was greater than 8; with H5N1 virus strain C3 it was 1; with H5N1 virus strain A1 it was greater than 8. The HI titer n (titer = 2^n) (n-th power of 2) with H5N1 virus strain D2 was 2.5; with H5N1 virus strain B8, 7; with H5N1 virus strain F3, 0; with H5N1 virus strain B3, greater than 8; in the assay with H5N1 virus strain B7, 7; with H5N1 virus strain H1, less than 1. In addition, the HI titer n (titer = 2^n) (n-th power of 2) in the assay with H5N1 virus strain B1 and with H5N1 virus strain B6 was 7 each time. For the same molecule, the neutralization: dilution of 10F7 scFv (fold dilution) in [11] was less than 1; in assay [12], 16; in assay [13], less than 1; in assay [14], 16; in [15], 32; in assay [16] it was 8.

Values taken from patent publication US20080199851A1.
